This note sets out measurements from patent US20020086396A1 (Human Genome Sciences, published 2002).

This test concerns the target T1, GST-αβ fusion protein (human, UniProt P52655 1-376).
T1 construct: Bacterially expressed and fixed to glutathione sepharose beads; not shown: glutathione-S-transferase (GST), fusion partner
T1 sequence (looked up): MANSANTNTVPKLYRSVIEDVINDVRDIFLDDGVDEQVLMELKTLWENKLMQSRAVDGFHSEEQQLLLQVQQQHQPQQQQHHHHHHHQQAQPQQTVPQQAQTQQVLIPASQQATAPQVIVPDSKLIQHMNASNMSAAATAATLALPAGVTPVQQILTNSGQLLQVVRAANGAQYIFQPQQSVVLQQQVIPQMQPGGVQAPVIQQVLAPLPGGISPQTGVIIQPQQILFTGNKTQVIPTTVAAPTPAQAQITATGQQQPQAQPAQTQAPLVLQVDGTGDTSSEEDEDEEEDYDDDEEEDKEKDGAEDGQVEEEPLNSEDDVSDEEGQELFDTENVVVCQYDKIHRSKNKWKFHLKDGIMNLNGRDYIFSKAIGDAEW
The test can be described thus: GST pull-down, 35S-labelled protein on glutathione sepharose beads, autoradiography. The method, then: Bacterial extracts of GST or GST fusion proteins were incubated with glutathione sepharose-4B beads (6-9 μg of GST-fusion protein/20 μl of beads) with shaking at […]. After 2 hours the beads were washed with 50 column volumes of cold buffer A (20 mM NaH₂PO₄ (pH 7.0) 150 mM NaCl, 1 mM DTT, 1 mM PMSF). Washed beads (20 μl) were then incubated with reticulocyte lysates containing 2×10⁴ cpm of ³⁵S labelled protein in 300 μl of protein binding buffer (PBB) for 1 hour at room temperature. PBB contained 20 mM Hepes (pH 7.9), 20% glycerol, 0.5 mM EDTA, 60 mM KCl, 5 mM MgCl2, 0.1% NP40, and 5 mM β-mercaptoethanol. The beads were subsequently washed 4 times in PBB and labeled proteins were eluted with 1M KCl. Samples were analyzed on 15% SDS polyacrylamide gels, enhanced with NaSalycilate, and visualized by autoradiography.

B1: 35S-labelled TFIIA αβ (large subunit of human TFIIA) (other, UniProt P52655 1-376, looked up)
chain: MANSANTNTVPKLYRSVIEDVINDVRDIFLDDGVDEQVLMELKTLWENKLMQSRAVDGFHSEEQQLLLQVQQQHQPQQQQHHHHHHHQQAQPQQTVPQQAQTQQVLIPASQQATAPQVIVPDSKLIQHMNASNMSAAATAATLALPAGVTPVQQILTNSGQLLQVVRAANGAQYIFQPQQSVVLQQQVIPQMQPGGVQAPVIQQVLAPLPGGISPQTGVIIQPQQILFTGNKTQVIPTTVAAPTPAQAQITATGQQQPQAQPAQTQAPLVLQVDGTGDTSSEEDEDEEEDYDDDEEEDKEKDGAEDGQVEEEPLNSEDDVSDEEGQELFDTENVVVCQYDKIHRSKNKWKFHLKDGIMNLNGRDYIFSKAIGDAEW
modifications: 35S label
notes: Made in reticulocyte lysate as 35S-labelled protein; also called αβ subunit; radiolabelled αβ
In the case of B1, the binding result is recorded as “no binding”.
